One test has as its target T1, AT2 receptor (Homo sapiens, UniProt P50052).
T1 construct: stimulate extracellular-signal-regulated kinase (ERK) phosphorylation in human bronchial epithelial (HBE) cells; endogenous in cells; host or cells: HBE (immortal human bronchial epithelial cell line)
T1 sequence (P50052 1-363): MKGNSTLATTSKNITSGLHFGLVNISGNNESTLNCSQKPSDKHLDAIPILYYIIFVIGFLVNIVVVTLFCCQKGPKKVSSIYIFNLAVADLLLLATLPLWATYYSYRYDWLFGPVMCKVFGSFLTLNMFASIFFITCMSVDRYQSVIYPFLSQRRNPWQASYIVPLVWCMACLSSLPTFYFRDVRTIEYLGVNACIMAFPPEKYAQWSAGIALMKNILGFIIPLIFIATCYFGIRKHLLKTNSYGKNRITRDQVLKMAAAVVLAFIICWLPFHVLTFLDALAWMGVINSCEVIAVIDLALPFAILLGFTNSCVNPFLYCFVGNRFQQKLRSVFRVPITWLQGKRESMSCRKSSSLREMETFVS
As to the kind of experiment: Inhibition of peptide-induced ERK phosphorylation by AT2 receptor antagonist PD123319 in HBE cells. Format: cell-based. To be noted: for inhibition of peptide-induced (total) Erk phosphorylation by PD123319 / inhibition of peptide-induced ERK phosphorylation (ERK1 and ERK2) by PD123319 / inhibition of peptide-induced ERK1 phosphorylation by PD123319 / inhibition of peptide-induced ERK2 phosphorylation by PD123319: 20 min preincubation with 10^-6 M PD123319, peptide 10^-6 M. The procedure: (§1) Peptides were purchased from JPT: linear DDRVAIHA (SEQ ID No: 4), dKDRVdCIHC (SEQ ID No: 9), KDRVdCIHC (SEQ ID No: 9), DDRVdCIHC (SEQ ID No: 11), IDRVdCIHC (SEQ ID No: 12), NDRVdCIHC (SEQ ID No: 13), SDRVdCIHC (SEQ ID No: 14), in which dK stands for D-lysine and dC stands for D-cysteine. The AT2 receptor antagonist PD123319 was from Axon Medchem. Studies were performed using the immortal human bronchial epithelial cell line HBE (Cozens A L, et al. 1994 CFTR expression and chloride secretion in polarized immortal human bronchial epithelial cells. Am J Respir Cell Mol Biol 10:38-47). All culture media and supplements, multiwell plates and flasks were from PAA.
(§2) Cell culture. Multi-well plates received 1 ml from a coating solution (for 112 ml: F12 medium 100 ml; bovine serum albumin 10 ml (1 mg/ml); collagen I, Bovine 1 ml (3 mg/ml); human fibronectin 1 ml (1 mg/ml)) and were incubated for 6 hours at 37° C. and 5% CO2. Subsequently the coating solution was discarded and the plates were dried for 2 hours in the laminar flow cabinet. In each 12 well plate 8.10^4 HBE cells were seeded per well followed by incubation for 24 hours at 37° C. and 5% CO2. Cell culture medium was prepared by adding 432.2 ml MEM 199 basic medium to 50 ml […] FCS and 5 ml L-Glutamin (200 mM), 10 ml Penicillin/Streptomycin (10.000 units/ml/10 mg/ml) and 2.8 ml Gentamycin (10 mg/ml). At 85-90% confluency medium was replaced by medium without FCS and growth factors followed by again 24 hours incubation at 37° C. and 5% CO2.
(§3) Erk1 and Erk2 phosphorylation. The medium was removed from each well and was washed once with HBS buffer without calcium and magnesium. The capacity of peptide at 10^−6 M was tested after 20 min preincubation with either 10^−6 M of PD123319 or concomitant controls, followed by washing. Challenges and concomitant controls were performed at 1 ml/well during 10 min. All samples were tested in triplicate. After the challenge 150 μl RIPA buffer (RIPA, TBS, 1% Nonidet P-40, 0.5% sodium deoxycholate, 0.1% SDS, 0.004% sodium azide, 1% PMSF (2 mM final concentration), 1% sodium orthovanadate (1 mM final concentration) and 1% protease inhibitor cocktail) was added to each well. The plates were incubated for 15 minutes at 4° C. The lysed cells were scraped from the surface. The lysate was transferred to 1.5 ml eppendorf cups and centrifuged 5 minutes at 12.700×g to pellet the cell debris. The supernatant was transferred into new cups and of a 5 al sample the total protein content was determined via the DC protein assay according to lowry (Bio-Rad), with BSA used as calibration protein. Protein was separated on gel and blotted with p-ERK mouse monoclonal IgG2a and mouse GAPDH anti-rat IgG1 antibodies and as a second antibody goat anti-mouse IgG-AP. The phosphorylated Erk proteins and GAPDH were stained with BCIP/NBT and quantified relative to GAPDH and total Erk using TotalLab software. Alternatively, total Erk phosphorylation was measured after permeabilization of the non-detached cells.
In this example it is investigated whether or not cAng-(1-7) analogs with an N-terminal extension of two amino acids stimulate the AT2 receptor.
Thioether bridged peptide synthesis and cell culture and measurement of Erk1- and total Erk phosphorylation were essentially as in example 2.

The test system of test [1] is extracellular-signal-regulated kinase (ERK) phosphorylation in human bronchial epithelial (HBE) cells. As to the kind of experiment: Peptide-induced Erk1/Erk2/total Erk phosphorylation in HBE cells. To be noted: peptide 10^-6 M, 10 min challenge. The test is classed as cell-based. As for the experimental part:
as §1, §2
as §3, with “The lysate was transferred to 1.5 ml eppendorf cups and centrifuged 5 minutes at 12.700×g to pellet the cell debris.” left out, “Protein was separated on gel and blotted with p-ERK mouse monoclonal IgG2a and mouse GAPDH anti-rat IgG1 antibodies and as a second antibody goat anti-mouse IgG-AP.” left out, “cells. […]” for “cells.”

For test [2], the system named is precontracted aorta rings. Kind of test: Vasodilation on phenylephrine-precontracted aorta rings (organ bath). On the set-up: species or system Sprague Dawley rat. To be noted: sub-nM concentration; peptides added cumulatively 0.1 nM to 1 μM; rings precontracted with 30 nM phenylephrine. The procedure:
Peptides: KDRVdCIHC (SEQ ID No: 9), and YDRVdCIHC (SEQ ID No: 10) wherein dC stands for D-cysteine were purchased from JPT. Specified pathogen-free male Sprague Dawley rats (SD) (Harlan, Zeist, The Netherlands), weighing […] were used. Prior to the experiment, the animals were housed together with free access of tap water and solid chow (Harlan, Zeist, The Netherlands) in a temperature and humidity controlled room and a 12/12 h light/dark cycle. All protocols described were approved by the University of Groningen Committee for Animal Experimentation.
Thioether-bridged peptides were obtained from the disulfide bridged peptide via base-asisted sulfur extrusion as previously (Galande A K, et al 2003. Biopolymers 71:534-551).
(§4) Vasodilation on precontracted aorta-rings. Arterial rings for organ bath experiments were prepared as described previously (Kluskens L D, et al. 2009. J Pharmacol Exp Ther 328:849-54). Before testing the vasodilating effects of the peptides the rings were precontracted to 50% of their maximum contraction level with 30 nM phenylephrine (PE). The 5,8 thioether bridged peptides KDRV[AIHA]C (SEQ ID No: 3) or YDRV[AIHA]c (SEQ ID No: 5) were added cumulatively in a range of 0.1 nM to 1 μM. Vasodilation data are represented as percentage of relaxation of 30 nM PE contraction.

A further test deals with T2, Mas receptor (Rattus norvegicus, UniProt P12526).
T2 construct: vasodilation in precontracted aorta rings from Sprague Dawley rats; from tissue; host or cells: aorta rings of male Sprague Dawley rats
T2 sequence (P12526 1-324): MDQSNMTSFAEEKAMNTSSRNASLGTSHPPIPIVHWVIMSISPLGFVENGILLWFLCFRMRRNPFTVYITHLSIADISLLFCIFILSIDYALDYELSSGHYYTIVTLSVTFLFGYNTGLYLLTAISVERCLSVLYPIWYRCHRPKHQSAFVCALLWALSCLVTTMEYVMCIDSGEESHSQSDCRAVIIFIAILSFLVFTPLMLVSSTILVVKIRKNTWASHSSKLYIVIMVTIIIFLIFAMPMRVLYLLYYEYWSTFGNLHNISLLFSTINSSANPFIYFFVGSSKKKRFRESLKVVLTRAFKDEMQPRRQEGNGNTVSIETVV
Kind of test: Peptide-induced vasodilation of precontracted aorta rings in presence of Mas receptor antagonist D-Pro7-Ang-(1-7). Set-up: species or system Sprague Dawley rat. The following applies: D-Pro7-Ang-(1-7) 0.1 μM, 10 min before 30 nM PE. The procedure:
as §4
D-Pro7-ang-(1-7), ang-(1-7) with a D-isomer of proline at position 7, which is a Mas-receptor antagonists, was from JPT and purified by HPLC prior to use. This antagonist was used as in Kluskens et al 2009: 10 min before addition of 30 nM PE at a concentration of 0.1 μM. Other materials and methods were as in example 1.

Bridges are numbered along the chain shown (N, C = ends). Where no end group is shown, it is not given here. [ ]: non-standard residue; d: D form.

Consider “IDDRVAIHA (not fully specified) [reference compound]”, for which the “inhibition of peptide-induced (total) Erk phosphorylation by PD123319” value with AT2 receptor is “no inhibition at all”. In test [1], the “peptide-induced (total) Erk phosphorylation” value is reported as “induced Erk phosphorylation”.

“Lys-Asp-Arg-Val-Abu/Ala-Ile-His-Abu/Ala (KDRVAIHA; not fully specified; thioether bridge (lanthionine); cyclic AT2 receptor antagonist) [KcAng-(1-7), cAng-(1-7) N-terminally extended with Lys]”: the “vasodilation of precontracted aorta rings (percentage of relaxation of 30 nM PE contraction)” value in test [2] is given as “significant vasodilating capacity”. In the test with AT2 receptor, the “inhibition of peptide-induced ERK phosphorylation (ERK1 and ERK2) by PD123319” value (from here on “inhibition … (ERK1 and ERK2) by PD123319”) is “complete”. Moreover, the “inhibition of peptide-induced vasodilation by Mas receptor antagonist D-Pro7” value in the test with Mas receptor is recorded as “does not inhibit”.

In the case of “Asp-Asp-Arg-Val-Abu/Ala-Ile-His-Abu/Ala (DDRVAIHA; not fully specified; thioether bridge (lanthionine); cyclic AT2 receptor antagonist) [DcAng-(1-7)]”, in the test with AT2 receptor, the “inhibition of peptide-induced ERK1 phosphorylation by PD123319” value is on record as “inhibited”; the “inhibition … (ERK1 and ERK2) by PD123319” value is reported as “complete”. Also, the “peptide-induced Erk1 phosphorylation” value in test [1] was “induced Erk1 phosphorylation”.

For the substance “ScAng-(1-7): thioether bridged cAng-(1-7) with Ser at position -1, made from SDRVdCIHC (SEQ ID No: 14) (SDRV[dC]IHC; bridge 5-8; not fully specified (bridges); also: thioether formed from the disulfide precursor by sulfur extrusion)”, in the test with AT2 receptor, the “interaction with / stimulation of the AT2 receptor (conclusion from PD123319 sensitivity of ERK phosphorylation)” value was “did not or hardly interact with the AT2 receptor”, the “inhibition of peptide-induced ERK1 phosphorylation by PD123319” value is reported as “less” and the “inhibition of peptide-induced ERK2 phosphorylation by PD123319” value was “did not affect”. Moreover, the “inhibition of peptide-induced ERK2 phosphorylation by PD123319” value in the test with AT2 receptor (listed as Ser) is recorded as “less or absent”.

For “Asn-Asp-Arg-Val-Abu/Ala-Ile-His-Abu/Ala (NDRVAIHA; not fully specified; thioether bridge (lanthionine); cyclic AT2 receptor antagonist) [N-cAng(1-7)]”, in the test with AT2 receptor, the “interaction with / stimulation of the AT2 receptor (conclusion from PD123319 sensitivity of ERK phosphorylation)” value is given as “did not or hardly interact with the AT2 receptor”, the “inhibition of peptide-induced ERK1 phosphorylation by PD123319” value is reported as “less” and the “inhibition of peptide-induced ERK2 phosphorylation by PD123319” value is on record as “less or absent”.

“Tyr-Asp-Arg-Val-Abu/Ala-Ile-His-Abu/Ala (YDRVAIHA; not fully specified; thioether bridge (lanthionine); cyclic AT2 receptor antagonist) [YcAng-(1-7), cAng-(1-7) N-terminally extended with Tyr]”: the “vasodilation of precontracted aorta rings (percentage of relaxation of 30 nM PE contraction)” value in test [2] is given as “significant vasodilating capacity”. Also, in the test with Mas receptor, the “inhibition of peptide-induced vasodilation by Mas receptor antagonist D-Pro7” value is recorded as “does not inhibit”.

As for “Ile-Asp-Arg-Val-Abu/Ala-Ile-His-Abu/Ala (IDRVAIHA; not fully specified; thioether bridge (lanthionine); cyclic AT2 receptor antagonist) [IcAng-(1-7)]”, in the test with AT2 receptor, the “inhibition of peptide-induced ERK1 phosphorylation by PD123319” value was “inhibited”; the “inhibition … (ERK1 and ERK2) by PD123319” value is given as “complete”. The “peptide-induced Erk1 phosphorylation” value in test [1] is “induced Erk1 phosphorylation”.

Turning to “DDRVAIHA (cyclic AT2 receptor antagonist) [reference compound]”, the “inhibition of peptide-induced (total) Erk phosphorylation by PD123319” value with AT2 receptor is “could not be inhibited”. Moreover, the “peptide-induced (total) Erk phosphorylation” value in test [1] is on record as “induced Erk phosphorylation”.

These data come from US9290540B2, “Angiotensin Type 2 (AT2) receptor agonists and uses thereof” (Lanthio Pep B.V., priority 2010, dated 2016).
